According to the supplement of paper PMC7877785:
± gives the uncertainty stated by the source.

Assay: self-splicing fitness, log relative to wild type (ln ratio); higher = more splicing; Tetrahymena group I intron in knt gene, E. coli kanamycin selection, DiMSum; sequences stand for … in CUCUCU…GGAGGGAAAAGUUAUCAGGCAUGCACCUGGUAGCUAGUCUUUAAACCAAUAGAUUGCAUCGGUUUAAAAGGCAAGACCGUCAAAUUGCGGGAAAGGGGUCAACAGCCGUUCAGUACCAAGUCUCAGGGGAAACUUUGAGAUGGCCUUGCAAAGGGUAUGGUAAUAAGCUGACGGACAUGGUCCUAACCACGCAGCCAAGUCCUAAGUCAACAGAUCUUCUGUUGAUAUGGAUGCAGUUCACAGACUAAAUGUCGGUCGGGGAAGAUGUAUUCUUCUCAUAAGAUAUAGUCGGACCUCUCCUUAAUGGGAGCUAGCGGAUGAAGUGAUGCAACACUGGAGCCGCUGGGAACUAAUUUGUAUGCGAAAGUAUAUUGAUUAGUUUUGGAGUACUCGUGGUCG
Summary of the method: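 DiMSum derived fitness as the error-weighted combination of fold changes across replicates, kanamycin versus no kanamycin, normalised to wild type. E. coli BL21(DE3) held the library, which randomised all eight P1ex-region intron nucleotides within the knt kanamycin-resistance gene on pET-22b(+). Six replicate transformations grew overnight at 37°C or 30°C on LB agar with or without 25 μg/mL kanamycin, also containing 100 μg/mL carbenicillin, 50 μM IPTG and 0.2% rhamnose, and pooled colonies were amplicon-sequenced on an Illumina HiSeq 2500.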

Sequence | self-splicing fitness (ln) (30 °C) | self-splicing fitness (ln) (37 °C)
UUAAAGCAAUAUUACGACCC | -0.686 ± 0.28 | -0.355 ± 0.29
CGGUAGCAAUAUUACGCAGC | -2.14 ± 0.24 | -1.72 ± 0.31
CCAGAGCAAUAUUACGUAGG | -3.25 ± 0.19 | -2.6 ± 0.25
UAGCAGCAAUAUUACGAUGA | -0.884 ± 0.069 | -0.42 ± 0.066
GCCUAGCAAUAUUACGAUUU | -1.98 ± 0.092 | -1.34 ± 0.097
CAAUAGCAAUAUUACGGUGU | -3.14 ± 0.16 | -2.27 ± 0.18
CGGCAGCAAUAUUACGCGCG | -2.65 ± 0.22 | -1.54 ± 0.23
GGUAAGCAAUAUUACGAGUC | -2.59 ± 0.16 | -0.851 ± 0.13
UGGCAGCAAUAUUACGCCCG | -0.568 ± 0.14 | -0.317 ± 0.21
CUUGAGCAAUAUUACGAUGA | -1.49 ± 0.23 | -2.03 ± 0.28
CGAAAGCAAUAUUACGUCAA | -3.45 ± 0.34 | -2.11 ± 0.25
GAACAGCAAUAUUACGCGAU | -2.87 ± 0.13 | -2.27 ± 0.14
UAGAAGCAAUAUUACGGUCC | -1.92 ± 0.22 | -1.57 ± 0.2
CGCUAGCAAUAUUACGUUCC | -2.83 ± 0.15 | -2.81 ± 0.31
CCUGAGCAAUAUUACGUUAC | -3.52 ± 0.26 | -3.09 ± 0.36
GCUAAGCAAUAUUACGCCAC | -1.43 ± 0.35 | -2 ± 0.38
ACACAGCAAUAUUACGAGCC | -1.97 ± 0.17 | -0.179 ± 0.19
AGCAAGCAAUAUUACGCCCA | -0.157 ± 0.17 | -0.704 ± 0.22
AUCCAGCAAUAUUACGACGU | -0.176 ± 0.057 | 0.696 ± 0.081
CUAUAGCAAUAUUACGGACC | – | -1.23 ± 0.34
GUUUAGCAAUAUUACGCUGA | -3.66 ± 0.33 | -1.6 ± 0.23
CGUUAGCAAUAUUACGAAAC | – | -1.84 ± 0.37
UAUGAGCAAUAUUACGUCCA | -2.26 ± 0.26 | -2.86 ± 0.4
AGUGAGCAAUAUUACGACUA | -1.06 ± 0.17 | -0.32 ± 0.15
GGUCAGCAAUAUUACGAGGU | -1.01 ± 0.13 | -1.7 ± 0.22

Sequence | self-splicing fitness (ln) (30 °C) | self-splicing fitness (ln) (37 °C)
UUCAAGCAAUAUUACGGCAG | -1.05 ± 0.077 | -0.45 ± 0.11
CGGGAGCAAUAUUACGACGC | -4.16 ± 0.46 | -3.31 ± 0.3
ACUUAGCAAUAUUACGGUUA | -1.27 ± 0.17 | -0.752 ± 0.15
CGGUAGCAAUAUUACGCAAU | – | -3.67 ± 0.46
GGAAAGCAAUAUUACGGCGG | -2.47 ± 0.19 | -1.45 ± 0.2
GUCUAGCAAUAUUACGCAGC | -2.29 ± 0.14 | -0.0809 ± 0.12
CGCUAGCAAUAUUACGUAAA | -2.46 ± 0.2 | -1.33 ± 0.31
AGAUAGCAAUAUUACGUGUA | -2.9 ± 0.14 | -1.82 ± 0.12
CCGCAGCAAUAUUACGUUCG | -0.778 ± 0.056 | -0.0727 ± 0.077
AUUCAGCAAUAUUACGCCCU | 0.164 ± 0.13 | 0.287 ± 0.21
CCAAAGCAAUAUUACGCUUA | -3.86 ± 0.24 | -3.12 ± 0.22
AGCUAGCAAUAUUACGGGGU | -2.6 ± 0.16 | -2.13 ± 0.18
CAACAGCAAUAUUACGGACA | -1.81 ± 0.1 | -0.798 ± 0.097
UUUGAGCAAUAUUACGCGAU | – | -2.19 ± 0.4
CGCAAGCAAUAUUACGUAGA | -2.6 ± 0.11 | -1.73 ± 0.13
UUGCAGCAAUAUUACGUCCU | -0.816 ± 0.14 | -0.682 ± 0.18
CUUAAGCAAUAUUACGCUGU | -4.48 ± 0.34 | -2.3 ± 0.23
CCUUAGCAAUAUUACGCAUA | -3.22 ± 0.46 | -2.24 ± 0.37
AUCAAGCAAUAUUACGGAGA | -2.57 ± 0.16 | -2.81 ± 0.24
UUUCAGCAAUAUUACGUGGC | -2.68 ± 0.15 | -2.94 ± 0.22
GCCGAGCAAUAUUACGUGCA | -2.31 ± 0.25 | -2.24 ± 0.18
AGAUAGCAAUAUUACGUCAC | -1.17 ± 0.27 | -2.78 ± 0.48
AACCAGCAAUAUUACGACGC | -0.537 ± 0.082 | -0.0547 ± 0.098
GCAGAGCAAUAUUACGCAAA | -3.37 ± 0.38 | –
ACGAAGCAAUAUUACGAUUA | -1.36 ± 0.077 | -0.917 ± 0.072

Sequence | self-splicing fitness (ln) (30 °C) | self-splicing fitness (ln) (37 °C)
UACCAGCAAUAUUACGCGGA | -1.69 ± 0.079 | -1.04 ± 0.082
GCAUAGCAAUAUUACGGGAA | -2.52 ± 0.21 | -0.707 ± 0.12
UAGGAGCAAUAUUACGUAAC | -4.94 ± 0.41 | -2.48 ± 0.22
GUGUAGCAAUAUUACGAAAU | -1.47 ± 0.1 | -1.1 ± 0.14
GGCAAGCAAUAUUACGCUCA | -1.21 ± 0.13 | 0.321 ± 0.17
CCGGAGCAAUAUUACGCCAC | -3.02 ± 0.49 | 0.445 ± 0.34
GAAUAGCAAUAUUACGAUGU | -1.3 ± 0.076 | -1.04 ± 0.12
AACGAGCAAUAUUACGCUGC | -3.01 ± 0.26 | -3.06 ± 0.35
GUUGAGCAAUAUUACGAUGA | – | -2.27 ± 0.42
AGUUAGCAAUAUUACGAUGA | -1.32 ± 0.18 | -0.239 ± 0.16
CCCUAGCAAUAUUACGAUUC | -1.79 ± 0.35 | –
UGUUAGCAAUAUUACGCGCG | -1.36 ± 0.19 | -0.771 ± 0.21
AGAGAGCAAUAUUACGCGAG | -2.97 ± 0.34 | –
AUCUAGCAAUAUUACGUACU | -0.329 ± 0.082 | -0.199 ± 0.11
UCUAAGCAAUAUUACGAAUC | – | -2.3 ± 0.45
UGCUAGCAAUAUUACGAUCA | 0.384 ± 0.07 | 0.522 ± 0.094
CUCCAGCAAUAUUACGCGCC | -2.7 ± 0.29 | -2.05 ± 0.38
CGGGAGCAAUAUUACGCAAC | -2.66 ± 0.24 | –
UACUAGCAAUAUUACGCAUC | -2.36 ± 0.14 | -1.53 ± 0.18
GACCAGCAAUAUUACGGUAU | -1.29 ± 0.056 | -0.678 ± 0.068
ACUCAGCAAUAUUACGGCGC | -0.183 ± 0.068 | 0.000506 ± 0.097
UCACAGCAAUAUUACGCAUA | -2.02 ± 0.097 | -1.68 ± 0.093
GAACAGCAAUAUUACGAUGG | -3.04 ± 0.19 | -1.17 ± 0.13
UCUGAGCAAUAUUACGCGGA | -3.6 ± 0.27 | -2.66 ± 0.21
GCUUAGCAAUAUUACGGUUA | -0.517 ± 0.11 | -0.548 ± 0.11

Sequence | self-splicing fitness (ln) (30 °C) | self-splicing fitness (ln) (37 °C)
AAUCAGCAAUAUUACGUGCA | -0.181 ± 0.067 | 0.221 ± 0.084
GGAGAGCAAUAUUACGCUCA | -2.77 ± 0.27 | -0.851 ± 0.26
GAUUAGCAAUAUUACGGGCG | -1.63 ± 0.15 | -1.33 ± 0.17
AUUCAGCAAUAUUACGAUAG | -3.99 ± 0.42 | -2.57 ± 0.26
CUUGAGCAAUAUUACGGUCU | -3.17 ± 0.29 | -3.61 ± 0.37
UAUCAGCAAUAUUACGGCUA | 0.13 ± 0.085 | 0.848 ± 0.12
CAAGAGCAAUAUUACGUUUU | -3.35 ± 0.16 | -2.29 ± 0.15
UUGAAGCAAUAUUACGAUGA | 0.15 ± 0.075 | 0.161 ± 0.099
CUGUAGCAAUAUUACGCGAU | -4.41 ± 0.32 | -2.87 ± 0.28
ACUUAGCAAUAUUACGAGAU | -2.61 ± 0.2 | -2.95 ± 0.24
UCGAAGCAAUAUUACGCAGA | -2.28 ± 0.2 | -2.85 ± 0.27
UGUGAGCAAUAUUACGAAGG | -3.98 ± 0.33 | -2.19 ± 0.3
ACAAAGCAAUAUUACGUGCA | -0.78 ± 0.057 | -0.154 ± 0.074
CGGAAGCAAUAUUACGGCCC | 0.0304 ± 0.18 | 0.0512 ± 0.23
GGACAGCAAUAUUACGUUUG | -0.577 ± 0.04 | -0.1 ± 0.058
CAGCAGCAAUAUUACGAGGA | -2.63 ± 0.2 | -2.42 ± 0.23
CUCCAGCAAUAUUACGAAGC | -3.5 ± 0.23 | -2.6 ± 0.32
ACACAGCAAUAUUACGUCAA | -2.25 ± 0.19 | -1.99 ± 0.14
AGCAAGCAAUAUUACGGGCG | -0.538 ± 0.061 | -0.377 ± 0.074
AACGAGCAAUAUUACGACCU | -1.02 ± 0.22 | -0.178 ± 0.2
GCUGAGCAAUAUUACGGGAU | -2.39 ± 0.14 | -1.34 ± 0.13
UCGUAGCAAUAUUACGCCUA | -0.658 ± 0.13 | 0.291 ± 0.11
GUGCAGCAAUAUUACGCAUU | – | -2.38 ± 0.2
